Test results: patent US20230414780A1 (VECT HORUS, published 2023)
Positions count from the first letter of the chain named.

Assays:
[1] = target: T1, human transferrin receptor (hTfR) fused to EGFP, on CHO cells (human, UniProt P02786 1-760); assay: flow cytometry on CHO-hTfR-EGFP cells, 1 hr at 4 C, anti-6His + Alexa647 anti-mouse; ratio to background fluorescence
T1 construct: whole, on cells; also called human TfR; CHO-hTfR-EGFP; not shown: EGFP from pEGFP-C1 vector, fused to the N-terminal (intracellular) end of hTfR
Method: FIGS. 15A-15H: In vitro gene silencing activity of VHH-siGFPst1 bioconjugates. […] CHO-hTfR-EGFP cells were incubated 1 hr at 4° C. with various concentrations of the indicated compounds. Detection of VHHs was performed using a primary mouse anti-6His (1/1000) and an Alexa647-conjugated anti-mouse secondary antibody (1/400). Measurements of cell-surface signal associated to VHH were performed using flow cytometry. The results are expressed as the ratio of Alexa647-associated fluorescence intensity of test compounds to that of background fluorescence. […] The total fluorescence associated to the EGFP protein was then quantified using flow cytometry and rationalized to that of untreated (control) cells (set at 100%) *** p≤0.001. […] The total fluorescence associated with the EGFP protein was then quantified using flow cytometry and rationalized to that of untreated (control) cells (set at 100%). […] CHO-hTfR-EGFP cells were incubated with the indicated compounds at 1 μM during 120 hrs at 37° C. Data were processed and analyzed as described in (B). *** p≤0.001 vs. untreated cells. […] The total fluorescence associated with the EGFP protein was then quantified using flow cytometry and rationalized to that of untreated (control) cells (set at 100%).

[2] = target: T1, human transferrin receptor (hTfR) fused …; assay: cell-based or functional assay
[3] = target: T1, human transferrin receptor (hTfR) fused …; assay: flow cytometry on CHO-hTfR-EGFP cells, 1 hr at 4 C, anti-6His + Alexa647 anti-mouse; nonlinear fit
Method: CHO-hTfR-EGFP cells were incubated 1 hr at 4° C. with various concentrations of the indicated compounds. Detection of VHHs was performed using a primary mouse anti-6His (1/1000) and an Alexa647-conjugated anti-mouse secondary antibody (1/400). Measurements of cell-surface signal associated with VHH were performed using flow cytometry. The results are expressed as the ratio of Alexa647-associated fluorescence intensity of test compounds to that of background fluorescence.

[4] = target: T2, mouse transferrin receptor (mTfR) fused to EGFP, on CHO cells (mouse, UniProt Q62351 1-763); assay: flow cytometry on CHO-mTfR-EGFP cells, 1 hr at 4 C, anti-6His + Alexa647 anti-mouse; apparent Kd, mean ± SEM of 3 experiments
T2 construct: whole, on cells; also called mouse TfR; CHO-mTfR-EGFP; not shown: EGFP
Method: (§1) (A) CHO-hTfR-EGFP and CHO-mTfR-EGFP cells were incubated 1 hr at 4° C. with various concentrations of VHHs, detected with a mouse anti-6His (1/1000) and an Alexa647-conjugated anti-mouse secondary antibody (1/400). Measurements were performed using flow cytometry.
(§2) All experiments were performed in 96 well plates using 2×10⁵ cells/well, at 4° C. with shaking. CHO cell lines stably expressing the hTfR or the mTfR fused to EGFP or CHO WT cells were saturated with PBS/BSA 2% solution during 30 min to avoid non-specific binding, followed by incubation with purified VHHs at concentrations ranging from 50 μM to 5 μM for 1 hr. After one wash in PBS/BSA 2%, cells were incubated for 1 hr with an anti-6His tag antibody (mouse), washed twice with PBS/BSA 2%, and incubated for 45 min with an Alexa647-conjugated anti-mouse secondary antibody. After two last washes in PBS/BSA 2%, cells were fixed by incubation for 15 min with PBS/PFA 2%, washed once with PBS and finally resuspended in PBS and stored at 4° C. Fluorescence levels were assessed using an Attune NxT Flow Cytometer (Thermo Fisher Scientific). […] No labeling of the CHO WT control cells was detected with all the tested VHHs (not shown). The VHH K_{d app} were calculated using GraphPad Prism software (FIG. 11-B; 12-B).

[5] = target: T3, human TfR ectodomain fused to a mouse IgG1 Fc fragment (human, UniProt P02786 89-760); assay: SPR, kinetic
T3 construct: extracellular domain; ectodomain fused to the N-terminal end of the Fc, made in-house; not shown: mouse IgG1 Fc fragment
Procedure, shortened: (§3)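 TfR–mouse Fc fusions, produced in-house, captured on HC 1500M or CM5 chips either directly or via immobilized anti-mouse IgG. VHHs injected in single-cycle or multiple-cycle kinetic mode on Biacore T200.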

[6] = target: T3, human TfR ectodomain fused to a mouse …; assay: SPR, at equilibrium
Procedure, shortened: as §3

[7] = target: T1, human transferrin receptor (hTfR) fused …; assay: flow cytometry on CHO-hTfR-EGFP cells, 1 hr at 4 C, anti-6His + Alexa647 anti-mouse; apparent Kd, mean ± SEM of 3 experiments
Method: as §1, §2

[8] = target: T1, human transferrin receptor (hTfR) fused …; assay: as above; remark: listed apart in the source
Method: (§4) (A) CHO-hTfR-EGFP and CHO-mTfR-EGFP cells were incubated 1 hr at 4° C. with various concentrations of VHHs, detected with a mouse anti-6His (1/1000) and an Alexa647-conjugated anti-mouse secondary antibody (1/400). Measurements were performed using flow cytometry. The ratio of fluorescence intensity for each point was normalized with the corresponding EGFP signal (receptor expression) and gave rise to the arbitrary unit. Data are presented as mean±SEM of 3 independent experiments. (B) Characteristics of VHHs: Molecular Weight (Da); Theoretical pI; Apparent Kd on human TfR (nM); Apparent Kd on mouse TfR (nM). Data are presented as mean±SEM of 3 independent experiments. NB: no binding, LB: low binding.
All experiments were performed in 96 well plates using 2×10⁵ cells/well, at 4° C. with shaking. CHO cell lines stably expressing the hTfR or the mTfR fused to EGFP or CHO WT cells were saturated with PBS/BSA 2% solution during 30 min to avoid non-specific binding, followed by incubation with purified VHHs at concentrations ranging from 50 μM to 5 μM for 1 hr. After one wash in PBS/BSA 2%, cells were incubated for 1 hr with an anti-6His tag antibody (mouse), washed twice with PBS/BSA 2%, and incubated for 45 min with an Alexa647-conjugated anti-mouse secondary antibody. […] Fluorescence levels were assessed using an Attune NxT Flow Cytometer (Thermo Fisher Scientific).

[9] = target: T2, mouse transferrin receptor (mTfR) fused …; assay: apparent Kd, flow cytometry, CHO cells
Method: as §2

[10] = target: T1, human transferrin receptor (hTfR) fused …; assay: apparent Kd, flow cytometry, CHO cells
Method: as §2

[11] = target: T2, mouse transferrin receptor (mTfR) fused …; assay: flow cytometry, CHO cells
[12] = target: T2, mouse transferrin receptor (mTfR) fused …; assay: flow cytometry on CHO-mTfR-EGFP cells, 1 hr at 4 C, Alexa647 anti-mouse; apparent Kd, mean ± SEM of 3 experiments
Method: as §4, with “FIGS. 13A-13B: Apparent Kd determination of 13C3-HC-VHH fusions on hTfR- and mTfR-expressing CHO cell lines. (A)” for “(A)”, “13C3 fusions and” for “VHHs,”, “with” for “with a mouse anti-6His (1/1000) and”, “anti-mouse” for “anti-mouse secondary”, “13C3 fusions:” for “VHHs:”, “(Da);” for “(Da); Theoretical pI;”
All experiments were performed in 96 well plates using 2×10⁵ cells/well, at 4° C. with shaking. CHO cell lines stably expressing the hTfR or the mTfR fused to EGFP or CHO WT cells were saturated with PBS/BSA 2% solution during 30 min to avoid non-specific binding, followed by incubation with purified VHHs at concentrations ranging from 50 μM to 5 μM for 1 hr. After one wash in PBS/BSA 2%, cells were incubated for 1 hr with an anti-6His tag antibody (mouse), washed twice with PBS/BSA 2%, and incubated for 45 min with an Alexa647-conjugated anti-mouse secondary antibody. After two last washes in PBS/BSA 2%, cells were fixed by incubation for 15 min with PBS/PFA 2%, washed once with PBS and finally resuspended in PBS and stored at 4° C. Fluorescence levels were assessed using an Attune NxT Flow Cytometer (Thermo Fisher Scientific).

[13] = target: T2, mouse transferrin receptor (mTfR) fused …; assay: cell-based flow cytometry assay on mTfR-expressing cells (as in Example XI); Kd/app
[14] = target: T2, mouse transferrin receptor (mTfR) fused …; assay: cell-based flow cytometry assay on mTfR-expressing cells (as in Example XI)

T1 sequence (P02786 whole entry, the tested form may be a part): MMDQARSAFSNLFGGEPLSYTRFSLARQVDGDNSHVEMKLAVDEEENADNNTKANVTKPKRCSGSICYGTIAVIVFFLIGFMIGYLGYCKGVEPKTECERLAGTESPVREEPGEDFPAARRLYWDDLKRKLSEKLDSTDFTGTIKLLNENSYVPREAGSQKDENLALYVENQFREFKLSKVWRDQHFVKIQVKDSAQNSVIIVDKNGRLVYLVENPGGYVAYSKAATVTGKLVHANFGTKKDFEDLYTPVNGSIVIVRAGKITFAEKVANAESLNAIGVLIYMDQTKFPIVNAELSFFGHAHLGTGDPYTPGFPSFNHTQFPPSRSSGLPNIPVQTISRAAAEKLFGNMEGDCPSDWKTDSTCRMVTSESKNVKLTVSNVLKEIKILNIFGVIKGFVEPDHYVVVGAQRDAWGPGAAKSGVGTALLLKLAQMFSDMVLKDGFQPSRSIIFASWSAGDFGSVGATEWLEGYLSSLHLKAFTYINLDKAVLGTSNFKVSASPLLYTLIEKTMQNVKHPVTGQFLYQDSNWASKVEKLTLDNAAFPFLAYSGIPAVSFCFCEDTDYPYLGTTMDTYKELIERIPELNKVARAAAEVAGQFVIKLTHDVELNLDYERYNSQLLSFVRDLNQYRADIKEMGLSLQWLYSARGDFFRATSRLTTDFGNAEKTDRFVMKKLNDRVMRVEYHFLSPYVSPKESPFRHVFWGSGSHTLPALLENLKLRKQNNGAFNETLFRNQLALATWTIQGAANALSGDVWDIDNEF
T3 sequence (P02786 89-760): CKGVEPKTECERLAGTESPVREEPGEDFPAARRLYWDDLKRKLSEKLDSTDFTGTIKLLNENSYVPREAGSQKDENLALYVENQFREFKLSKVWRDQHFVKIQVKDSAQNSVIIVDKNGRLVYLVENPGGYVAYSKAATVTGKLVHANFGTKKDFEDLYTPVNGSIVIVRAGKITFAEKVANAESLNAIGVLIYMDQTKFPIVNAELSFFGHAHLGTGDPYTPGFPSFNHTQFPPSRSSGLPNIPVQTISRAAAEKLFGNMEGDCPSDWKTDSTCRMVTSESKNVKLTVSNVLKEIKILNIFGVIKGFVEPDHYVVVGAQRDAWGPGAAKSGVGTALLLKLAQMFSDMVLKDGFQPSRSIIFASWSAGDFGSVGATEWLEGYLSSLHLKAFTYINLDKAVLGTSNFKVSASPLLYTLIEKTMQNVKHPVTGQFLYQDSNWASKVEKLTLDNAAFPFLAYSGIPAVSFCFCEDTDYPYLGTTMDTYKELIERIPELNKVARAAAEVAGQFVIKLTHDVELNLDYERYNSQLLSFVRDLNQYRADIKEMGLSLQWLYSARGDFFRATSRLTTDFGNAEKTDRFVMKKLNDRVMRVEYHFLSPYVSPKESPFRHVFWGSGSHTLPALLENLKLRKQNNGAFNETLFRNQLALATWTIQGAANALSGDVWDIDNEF
T2 sequence (Q62351 whole entry, the tested form may be a part): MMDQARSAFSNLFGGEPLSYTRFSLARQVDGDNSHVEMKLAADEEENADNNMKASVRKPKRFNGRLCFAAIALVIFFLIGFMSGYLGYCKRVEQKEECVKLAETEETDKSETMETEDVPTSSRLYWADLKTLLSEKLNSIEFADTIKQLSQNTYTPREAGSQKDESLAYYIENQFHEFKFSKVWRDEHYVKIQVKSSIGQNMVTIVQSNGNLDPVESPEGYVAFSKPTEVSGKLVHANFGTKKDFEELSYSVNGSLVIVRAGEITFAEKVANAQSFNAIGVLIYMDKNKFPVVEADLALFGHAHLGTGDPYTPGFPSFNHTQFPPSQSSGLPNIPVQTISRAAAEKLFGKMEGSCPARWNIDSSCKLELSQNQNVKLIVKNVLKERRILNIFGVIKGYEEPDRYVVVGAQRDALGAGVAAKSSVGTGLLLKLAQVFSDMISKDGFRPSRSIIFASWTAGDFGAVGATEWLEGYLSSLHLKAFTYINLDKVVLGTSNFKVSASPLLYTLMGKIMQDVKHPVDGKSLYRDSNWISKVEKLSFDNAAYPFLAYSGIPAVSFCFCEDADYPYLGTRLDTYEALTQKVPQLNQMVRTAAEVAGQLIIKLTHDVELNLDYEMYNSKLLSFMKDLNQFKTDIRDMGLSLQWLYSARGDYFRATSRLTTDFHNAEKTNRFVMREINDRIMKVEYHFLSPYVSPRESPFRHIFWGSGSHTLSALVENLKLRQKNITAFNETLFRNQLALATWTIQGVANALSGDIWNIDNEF

B1: VHH A-siGFPst1 bioconjugate (VHH)
VHH: EVQLVESGGGVVQPGGSLKLSCVASGTDFSINFIRWYRQAPGKQREFVAGFTATGNTNYADSMKGRFTISRDNTKNAVYLQIDSLKPEDTAVYYCYMLDKWGQGTQVTVSS
modifications: siGFPst1 siRNA linked by azide/DBCO click chemistry to the Gln of the C-terminal Q-tag
notes: not shown: C-terminal tag with His tag and Q-tag (Q-tagged VHH)
[1]
  EC50 (read off the curve): ~3 nM
[2]
  IC50 of reduction of GFP protein levels, 6-hour pulse and chase to 120 hrs: 1.24 nM
  IC50 of reduction of GFP protein levels, free uptake 120 hrs: 2.73 nM

B2: VHH A-NODAGA bioconjugate (VHH, not shown: small tags and cut ends)
VHH: B1 VHH
modifications: NODAGA-BCN clicked to an azido linker on the Gln of the C-terminal Q-tag
[3]
  Kd: 7.72 nM

B3: VHH A19 (C5^V19) (VHH)
VHH: B1 VHH with D99E
[4]
  Kd: 210 nM
[5]
  Kd: 22.3 nM
  koff: 0.0097 s⁻¹
  kon: 426000 M⁻¹ s⁻¹
[6]
  Kd: 7.13 nM
[7]
  Kd: 9.2 nM

B4: VHH A5 (C5^V5) (VHH)
VHH: B1 VHH with Y96A
[5]
  Kd: 154 nM
  koff: 0.0509 s⁻¹
  kon: 332000 M⁻¹ s⁻¹
[6]
  Kd: 180 nM
[8]
  Kd: 25 nM
[9]
  Kd: 604 nM

B5: VHH A17 (C5^V17) (VHH)
VHH: B1 VHH with L98I
[4]
  Kd: 208 nM
[7]
  Kd: 5.3 nM
[10]
  Kd: 3 to 4 nM

B6: 13C3-HC-VHH A1 (antibody)
heavy: QVQLQQSGPELVRPGVSVKISCKGSGYTFTDYAMHWVKQSHAKSLEWIGVISTKYGKTNYNQKFKGKATMTVDKSSSTAYMELARLTSEDSAIYYCARGDDGYSWGQGTSVTVSSAKTTPPSVYPLAPGSAAQTNSMVTLGCLVKGYFPEPVTVTWNSGSLSSGVHTFPAVLQSDLYTLSSSVTVPSSTWPSETVTCNVAHPASSTKVDKKIVPRDCGCKPCICTVPEVSSVFIFPPKPKDVLTITLTPKVTCVVVDISKDDPEVQFSWFVDDVEVHTAQTQPREEQFNSTFRSVSELPIMHQDWLNGKEFKCRVNSAAFPAPIEKTISKTKGRPKAPQVYTIPPPKEQMAKDKVSLTCMITDFFPEDITVEWQWNGQPAENYKNTQPIMDTDGSYFVYSKLNVQKSNWEAGNTFTCSVLHEGLHNHHTEKSLSHSPGGGGGMAEVQLVESGGGVVQPGGSLKLSCVASGADFSINFIRWYRQAPGKQREFVAGFTATGNTNYADSMKGRFTISRDNTKNAVYLQIDSLKPEDTAVYYCYMLDKWGQGTQVTVSSAAA
light: DVVMTQTPLSLPVSLGDQASISCRSGQSLVHSNGNTYLHWYLQKPGQSPKLLIYTVSNRFSGVPDRFSGSGSGSDFTLKISRVEAEDLGVYFCSQNTFVPWTFGGGTKLEIKRADAAPTVSIFPPSSEQLTSGGASVVCFLNNFYPKDINVKWKIDGSERQNGVLNSWTDQDSKDSTYSMSSTLTLTKDEYERHNSYTCEATHKTSTSPIVKSFNRNEC
[11]
  Bmax, fold lower than 13C3-HC-VHH A: 2 fold
[12]
  Kd: 9.4 nM

B7: 13C3-HC-C5h16 (antibody)
heavy: QVQLQQSGPELVRPGVSVKISCKGSGYTFTDYAMHWVKQSHAKSLEWIGVISTKYGKTNYNQKFKGKATMTVDKSSSTAYMELARLTSEDSAIYYCARGDDGYSWGQGTSVTVSSAKTTPPSVYPLAPGSAAQTNSMVTLGCLVKGYFPEPVTVTWNSGSLSSGVHTFPAVLQSDLYTLSSSVTVPSSTWPSETVTCNVAHPASSTKVDKKIVPRDCGCKPCICTVPEVSSVFIFPPKPKDVLTITLTPKVTCVVVDISKDDPEVQFSWFVDDVEVHTAQTQPREEQFNSTFRSVSELPIMHQDWLNGKEFKCRVNSAAFPAPIEKTISKTKGRPKAPQVYTIPPPKEQMAKDKVSLTCMITDFFPEDITVEWQWNGQPAENYKNTQPIMDTDGSYFVYSKLNVQKSNWEAGNTFTCSVLHEGLHNHHTEKSLSHSPGGGGGMAEVQLVESGGGLVQPGGSLRLSCAASGTDFSINFIRWYRQAPGKGLEFVAGFTATGNTNYADSVKGRFTISRDNSKNTLYLQMNSLRAEDTAVYYCYMLDKWGQGTLVTVSSAAA
light: B6 light
[11]
  binding potential, fold lower than 13C3-HC-C5h20: ~3 fold
[13]
  Kd: 19.6 nM
[14]
  Bmax: 381 RFI
